Laboratory results from the supplement of paper PMC9112550, “Optimization of the antimicrobial peptide Bac7 by deep mutational scanning” (BMC Biology, 2022).

tested on: Escherichia coli TOP10; test: shrunken log2 fold change of peptide-encoding DNA abundance (4.5 h post-induction vs induction); higher = less antimicrobial activity (less host growth inhibition); settings: time post-induction: 4.5 h; library: site-saturation at positions 5, 18, 19, 20
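Further: peptides expressed intracellularly from a pBAD plasmid library in pooled LB shake-flask culture, induced with 0.3% L-arabinose, DNA abundance read by NGS, three biological replicates, DESeq2 with apeglm shrinkage.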

Row | Sequence | shrunken log2 fold change
1 | RRIRSRPPRLPRPRPRPSEGPRP | -0.559
2 | RRIRMRPPRLPRPRPRPEDDPRP | -0.01
3 | RRIRIRPPRLPRPRPRPASFPRP | -0.167
4 | RRIRCRPPRLPRPRPRPTELPRP | -0.106
5 | RRIRDRPPRLPRPRPRPLRIPRP | 0.168
6 | RRIRFRPPRLPRPRPRPNRMPRP | 0.0762
7 | RRIRYRPPRLPRPRPRPYTGPRP | -0.0103
8 | RRIRDRPPRLPRPRPRPENIPRP | -0.172
9 | RRIRERPPRLPRPRPRPIHKPRP | -0.424
10 | RRIRDRPPRLPRPRPRPSPKPRP | -0.00809
11 | RRIRFRPPRLPRPRPRPHQVPRP | -0.088
12 | RRIRIRPPRLPRPRPRPNFRPRP | -0.297
13 | RRIRWRPPRLPRPRPRPFWRPRP | 0.111
14 | RRIRARPPRLPRPRPRPFVFPRP | 0.166
15 | RRIRLRPPRLPRPRPRPCLGPRP | -0.25
16 | RRIRARPPRLPRPRPRPAAGPRP | 0.78
17 | RRIRQRPPRLPRPRPRPESSPRP | -0.0458
18 | RRIRDRPPRLPRPRPRPLQVPRP | 0.0133
19 | RRIRIRPPRLPRPRPRPLNAPRP | -0.107
20 | RRIRARPPRLPRPRPRPDDRPRP | -0.149
21 | RRIRERPPRLPRPRPRPGSKPRP | -0.129
22 | RRIRKRPPRLPRPRPRPFTIPRP | 0.0665
23 | RRIRWRPPRLPRPRPRPVMAPRP | 0.171

Row | Sequence | shrunken log2 fold change
24 | RRIRYRPPRLPRPRPRPFPIPRP | -0.705
25 | RRIRWRPPRLPRPRPRPARFPRP | 0.461
26 | RRIRIRPPRLPRPRPRPGWWPRP | 0.405
27 | RRIRLRPPRLPRPRPRPRSRPRP | 0.394
28 | RRIRWRPPRLPRPRPRPHCVPRP | -0.169
29 | RRIRIRPPRLPRPRPRPMCNPRP | -0.0808
30 | RRIRNRPPRLPRPRPRPWPEPRP | -0.0309
31 | RRIRSRPPRLPRPRPRPMKKPRP | -0.0833
32 | RRIRCRPPRLPRPRPRPVGFPRP | 0.0344
33 | RRIRSRPPRLPRPRPRPCTQPRP | -0.294
34 | RRIRKRPPRLPRPRPRPCEEPRP | 0.56
35 | RRIRARPPRLPRPRPRPGREPRP | 0.388
36 | RRIRMRPPRLPRPRPRPVCFPRP | 0.126
37 | RRIRFRPPRLPRPRPRPDLNPRP | -0.321
38 | RRIRLRPPRLPRPRPRPSIHPRP | -0.619
39 | RRIRSRPPRLPRPRPRPMPKPRP | 0.0763
40 | RRIRMRPPRLPRPRPRPKAEPRP | 3.05
41 | RRIRYRPPRLPRPRPRPWRMPRP | -0.369
42 | RRIRVRPPRLPRPRPRPLTAPRP | 0.106
43 | RRIRFRPPRLPRPRPRPLDYPRP | -0.0121
44 | RRIRPRPPRLPRPRPRPWHNPRP | -0.809
45 | RRIRQRPPRLPRPRPRPIYPPRP | -0.121
46 | RRIRHRPPRLPRPRPRPGFTPRP | -0.358

Row | Sequence | shrunken log2 fold change
47 | RRIRARPPRLPRPRPRPMCMPRP | 0.272
48 | RRIRWRPPRLPRPRPRPGHIPRP | -0.0732
49 | RRIRQRPPRLPRPRPRPEVSPRP | 0.116
50 | RRIRQRPPRLPRPRPRPQCCPRP | -0.0133
51 | RRIRIRPPRLPRPRPRPIPSPRP | -0.193
52 | RRIRMRPPRLPRPRPRPAMVPRP | 0.501
53 | RRIRARPPRLPRPRPRPMRTPRP | 0.802
54 | RRIRWRPPRLPRPRPRPQFAPRP | 0.189
55 | RRIRRRPPRLPRPRPRPCPLPRP | 0.262
56 | RRIRRRPPRLPRPRPRPPALPRP | 0.635
57 | RRIRDRPPRLPRPRPRPCFCPRP | -0.054
58 | RRIRVRPPRLPRPRPRPPTKPRP | 0.417
59 | RRIRHRPPRLPRPRPRPMWVPRP | -0.015
60 | RRIRSRPPRLPRPRPRPFLIPRP | -0.383
61 | RRIRTRPPRLPRPRPRPQCRPRP | -0.259
62 | RRIRHRPPRLPRPRPRPLTSPRP | -0.246
63 | RRIRWRPPRLPRPRPRPEAQPRP | 0.779
64 | RRIRLRPPRLPRPRPRPKVIPRP | -0.185
65 | RRIRTRPPRLPRPRPRPTEAPRP | 0.0502
66 | RRIRKRPPRLPRPRPRPKMCPRP | -0.0224
67 | RRIRDRPPRLPRPRPRPTKAPRP | 0.000414
68 | RRIRNRPPRLPRPRPRPMGRPRP | -0.117
69 | RRIRTRPPRLPRPRPRPWCLPRP | -0.596

Row | Sequence | shrunken log2 fold change
70 | RRIRWRPPRLPRPRPRPAMLPRP | 0.365
71 | RRIRIRPPRLPRPRPRPVAKPRP | -0.0157
72 | RRIRVRPPRLPRPRPRPGWQPRP | 0.545
73 | RRIRHRPPRLPRPRPRPTHLPRP | -0.102
74 | RRIRDRPPRLPRPRPRPLDQPRP | 0.0626
75 | RRIRHRPPRLPRPRPRPQLEPRP | 0.0607
76 | RRIRTRPPRLPRPRPRPSFSPRP | -0.262
77 | RRIRTRPPRLPRPRPRPSLIPRP | -0.424
78 | RRIRQRPPRLPRPRPRPSYWPRP | -0.0858
79 | RRIRHRPPRLPRPRPRPMQLPRP | -0.366
80 | RRIRSRPPRLPRPRPRPFMKPRP | -0.205
81 | RRIRERPPRLPRPRPRPIVYPRP | 0.0176
82 | RRIRWRPPRLPRPRPRPLLIPRP | 0.0213
83 | RRIRDRPPRLPRPRPRPLYHPRP | -0.54
84 | RRIRVRPPRLPRPRPRPSTLPRP | -0.166
85 | RRIRIRPPRLPRPRPRPTCPPRP | 0.00857
86 | RRIRARPPRLPRPRPRPLWNPRP | 0.0673
87 | RRIRTRPPRLPRPRPRPFDTPRP | -0.346
88 | RRIRGRPPRLPRPRPRPPLHPRP | 0.501
89 | RRIRCRPPRLPRPRPRPISWPRP | -0.105
90 | RRIRTRPPRLPRPRPRPRTWPRP | -0.0887
91 | RRIRHRPPRLPRPRPRPCATPRP | 0.0959
